Values quoted from earlier work in US20230301999A1, “METHODS OF TREATING GOUT” (Horizon Therapeutics USA, Inc., priority 2020, published 2023).
Read-outs that look alike come from different tables or passages of the source.

Columns and labels:
patients with gout = conditions: patients treated with allopurinol
[1] = tested on: patients with refractory chronic gout; conditions: Phase 2 program
[2] = single IV infusions of 0.5 mg to 12 mg; 23 patients with symptomatic gout
vacuolated cells = conditions: no associated clinical manifestations
[3] = tested on: patients receiving pegloticase
[4] = tested on: patients with refractory chronic gout; conditions: bi-weekly or every 4 weeks for up to 30 months
[5] = 2 hemodialysis sessions; pre- and post-dialyzer samples
[6] = tested on: subjects with refractory gout; conditions: doses of 4 to 12 mg; from 11.1±0.6 mg/dL
subjects with gout = conditions: Phase 2, 30-min administration in the majority
[7] = tested on: hyperuricemic patients with symptomatic gout
[8] = rat; during 7 days after injection

In the case of `Oc1ncnc2[nH]ncc12` [allopurinol], the “patients developing allergic reactions” value (patients with gout) is given as “Approximately 2%”.
For pegloticase, the dose-response plateau dose [1] is listed as 12 mg, the minimally effective dose [1] is listed as 4 mg and the “safe and optimally effective dose” value [1] is listed as 8 mg. The “maximum serum concentrations vs dose” value [2] was “increased in proportion to the dose administered”, the “finding in chronic toxicology studies” value (vacuolated cells) was “dose-dependent increase in vacuolated cells” and the “patients with antibody titer exceeding 1:2430 maintaining response” value ([3]; 7 of 65, another study) was 10.8%. The “patients with titers exceeding 1:2430 developing IRs” value ([3]; 31 of 52) was 60%, the “patients never having antibody titer above 1:2430 maintaining response” value ([3]; 58/65, another study) was 89.2% and the “participants with high titers developing IR” value ([3]; second study) was 60%. For the same compound, the long-term safety [4] was “No new safety signals were observed”, the removal by dialysis [5] was “not removed by the dialysis process” and the “pUAc after fall, mean±SD” value [6] was 1.0±0.5 mg/dL. The “stability diluted in infusion bags” value (2° C. to 8° C.) was 4 h, the “stability diluted in infusion bags” value (room temperature (20° C. to 25° C.)) was 4 h and the anaphylaxis (subjects with gout) was “no subjects experienced anaphylaxis”. For the same compound, the “subjects experiencing an IR” value (subjects with gout; no MTX, majority without IR prophylaxis) was 44%, the “subjects with infusion reactions (IRs)” value ([7]; 8 mg every 2 weeks, Phase 3, 120-min infusion, IR prophylaxis, no pre-infusion uric acid monitoring) was 26% and the “subjects with infusion-related reactions” value ([7]; 8 mg every 4 weeks, Phase 3) was 40%. For the same compound, the “patients maintaining therapeutic response” value ([7]; 6 months, pegloticase alone, previously reported) was 42%, the “patients with IRs in whom loss of response (SUA≥6 mg/dL) preceded the first IR” value ([7]; 20/21 patients) was 95% and the subjects with anaphylaxis ([7]; Phase 3, 120-min infusion, IR prophylaxis) was 5%. The IR rate ([7]; clinical practice/studies with a uric acid monitoring protocol) was “about 8%” and the “dose excreted in the urine” value [8] was “Approximately 70%”.
